Experiment [1] addresses human LILRA6 protein (human) (UniProt Q6PI73). As to the kind of experiment: ELISA, LILRA6 protein. On the technique in general: An ELISA detects its analyte on a solid surface through an enzyme-linked reagent.
For experiment [2], the target named is human LILRB4 (human) (UniProt Q8NHJ6). The experiment can be described thus: cell-based or functional assay.
Experiment [3] shares this target. The experiment can be described thus: FACS.
Experiment [4] has the same target. As to the kind of experiment: competitive FACS; competition with IO-202.
The next experiment has as its target hLILRB3 (human) (UniProt O75022). The experiment can be described thus: FACS; isotype control. On the technique in general: A flow cytometer gives signals particle by particle.

In experiment [1], Isotype (hIgG1) (antibody) registered an ELISA(OD450) of 0.152 OD450. In the experiment with human LILRB4 (human) [2], this substance came in with an ADCP (%) at 133.3 nM, macrophages and MV-4-11 cells of 2.92%; a FcγR stimulation (TNF-α, pg/mL) of 31.6 pg/mL; a Fold change (Compared to isotype) of 1 fold; a Max cell cytotoxicity (%), ADCC on THP-1 cells of 2.75%.

In the experiment with human LILRB4 (human) [3], IO-202 yielded an EC50 of 1.31 nM. Also, in the experiment with human LILRB4 (human) [4], the IC50 is 3.74 nM.

As for Isotype, the EC50 with hLILRB3 (human) worked out at 42 nM.

In general, EC50 refers to the concentration at which the effect is half-maximal. The low end stands for a more potent agent, the high end for a less potent agent. The term IC50 denotes the point on the concentration scale where inhibition reaches its midpoint. Lower therefore signals greater potency in that assay.

Source of the values: patent US20250361295A1.
